In assay [1] the test system is mutant Kras pancreatic organoids. Nature of the assay: Growth of mutant Kras pancreatic organoids with recombinant IL-4 / IL-13 (Cell Titer Glo). Conditions: pre-malignant mutant Kras G12D; for proliferation (Cell Titer Glo): 6-day growth; for proliferation (Cell Titer Glo) after cytokine pre-treatment: pre-treatment with the cytokines during 2 weeks. The format is cell-based, mouse. As to the method: Isolation, culture and genetic manipulation of pancreatic organoids. To isolate untransformed ductal organoids for the transplantable PDAC tumorigenesis model, normal pancreas from LSL-KrasG12D mice (pure Bl/6N background) minced and digested with 0.012% collagenase XI (C9407, Sigma-Aldrich) and 0.012% Dispase (17105041, Life Technologies) in HBSS with Mg^2+ and Ca^2+ (14025076, Thermo Fisher Scientific) at 37° C. for a maximum of 30 mins. The material was further digested with TrypLE (GIBCO) for 5 min at 37° C., washed twice with DMEM/F12 (Life Technologies) supplemented with 2 mM glutamine and penn-strep, embedded in growth factor reduced matrigel (Corning), and cultured in complete medium, as described in Boj et al 2014. For activation of mutant Kras, organoids haroburing the LSL-KrasG12D allele were transduced with Ad-mCherry-Cre (Vector Biolabs), and Cherry^+ cells were sorted from single cell organoid suspension by flow cytometry 36h thereafter. Resulting clones were assessed for LSL-KrasG12D recombination by genotyping PCR in genomic DNA using the following primers: 5′ gtc ttt ccc cag cac agt gc 3′ (SEQ ID NO: 19), 5′ ctc ttg cct acg cca cca get c 3′ (SEQ ID NO: 20), and 5′ agc tag cca cca tgg ctt gag taa gtc tgc a 3′ (SEQ ID NO: 21). Validated Cre-recombined clones were then subjected to CRISPR-based inactivation of Trp53 using the PX458 vector (Addgene #48138) and gRNA […] sequence (SEQ ID NO: 22). PX458-sgTrp53 was transduced into organoids by transient transfection using the spinoculation method previously described (O'Rourke et al., 2017), with the modification of using the Effectene transfection reagent (Qiagen). PX458-sgTrp53 introduced cells were sorted by GFP positivity with flow cytometry 36h post-transfection. p53 null status of targeted clones was validated by western blot, using anti-p53 antibody (CMS, Leica Microsystem) and anti-β-actin-peroxidase antibody (Sigma-Aldrich) as normalization control.
This activation was specific (i.e. not observed for many other cytokine receptors, nor during normal pancreas regeneration) and is associated with the emergence of multiple de novo ATAC peaks (FIG. 14B). Preliminary gain-of-function experiments in mutant Kras pancreatic organoids indicate that these druggable Th2 cytokine receptors are functional and modulate organoid growth in vitro (FIG. 14C).
(In general: ATP-based viability assays read luminescence as a measure of living cells.)

Assay [2] has as its system Kras-wild type (C-GEMM) mice. The assay is described as follows: Recombinant Il-33 treatment of Kras wild-type (C-GEMM) mice. It counts as in vivo, mouse. Conditions: 21 days after treatment; for pancreas histology (H&E, Alcian Blue): same dosing. How it is done: (§1) To compare the effects of tissue injury in the transcriptional and chromatin accessibility landscapes of mutant Kras-expressing or Kras wild-type pancreatic epithelial cells, KC;RIK (p48-Cre;RIK;LSLKrasG12D) or C;RIK (p48-Cre;RIK) male mice were treated with 8 hourly intraperitoneal injections of 80 μg/kg caerulein (Bachem) or PBS for 2 consecutive days, using littermates when possible. To characterize invasive disease, pancreatic ductal adenocarcinoma (PDAC) cells were isolated from cancer lesions arising in autochthonous transgenic models (KPflC;RIK (p48Cre;RIK;LSL-KrasG12D;p53fl/^+) that were macro-dissected away from pre-malignant tissue. As an orthogonal approach, C57Bl/6 female mice (Harlan) were subjected to for orthotopic transplantations with syngeneic ductal organoids harboruing mutant Kras and inactivated Trp53 gene (see below). Prior to transplantation, organoid cultures were dissociated with TrypLE (Gibco) after mechanical dissociation by pipetting and 1-2×10^5 cells in serum-free advanced DMEM/F12 (Life Technologies) supplemented with 2 mM glutamine and penn-strep were mixed 1:1 with growth factor reduced matrigel (Corning) and injected into the exposed pancreas of 8-10 weeks old C57B16/N mice using a Hamilton syringe fitted with a 26 gauge needle. For treatment with recombinant Il-33, 5 weeks-old C or KC mice were injected intraperitoneally once daily doses with 1 ug of murine recombinant Il-33 (#580504, R&D Systems) or vehicle (PBS) for 5 consecutive days.
(§2) Immunofluorescence, immunohistochemistry and histological analyses. Tissues were fixed overnight in 10% neutral buffered formalin (Richard-Allan Scientific), embedded in paraffin and cut into 5 μm sections. Slides were heated for 30 min at 55° C., deparaffinized, rehydrated with an alcohol series and subjected to antigen retrieval with citrate buffer (Vector Laboratories Unmasking Solution, H-3300) for 25 min in a pressure cooker set on high. Sections were treated with 3% H2O2 for 10 min followed by a wash in dionized water (for immunohistochemistry only), washed in PBS, then blocked in PBS/0.1% Triton X-100 containing 1% BSA. Primary antibodies were incubated overnight at 4° C. in blocking buffer. The following primary antibodies were used: mKate2 (Evrogen, AB233), GFP (ab13970, Abcam and 2956S, Cell Signaling Technology), Brd4 (HPA015055, Sigma-Aldrich), Myc (ab32072, Abcam), Cpa1 (R&D, AF2765), Clusterin (SCBT sc-6419), SOX9 (Millipore AB553), Amylase (sc-31869, Santa Cruz), Krt19 (Troma III, Developmental Studies Hybridoma Bank) and Il-33 (AF3626, R&D). For mKate2, GFP and cMyc immunohistochemistry, Vector ImmPress HRP kits and ImmPact DAB (Vector Laboratories) were used for secondary detection. […]

Assay [3] has as its system Kras mutant (KC-GEMM) mice. Nature of the assay: Recombinant Il-33 treatment of Kras mutant (KC-GEMM) mice. It counts as in vivo, mouse. Conditions: for expression of cell fate / PanIN markers (Agr2, Muc6, Dclk1, Cpa1, Sox9) in mKate2+ pancreatic epithelial cells: KC mice, qRT-PCR, 21 days after treatment; for mutant KRAS-driven tumorigenesis / mucinous PanIN lesions (H&E, Alcian Blue, mKate2) / expansion of Dclk1+ cancer stem cells (Dclk1 immunofluorescence): KC-GEMM mice, 5 consecutive days; for mutant KRAS-driven tumorigenesis / mucinous PanIN lesions (H&E, Alcian Blue, mKate2): 1 ug/mouse i.p. once daily, analyzed 21 days thereafter, vs vehicle (PBS); for expansion of Dclk1+ cancer stem cells (Dclk1 immunofluorescence): 1 ug/mouse, day 21 post-treatment. As to the method: as §1
as §2, with “detection. Tissues were then counterstained with Haematoxylin or when indicated Alcian blue (pH 2.5) and 0.1% Nuclear Fast Red Solution, dehydrated and mounted with Permount (Fisher). The immunohistochemistry detection of Brd4 was performed at the Molecular Cytology Core Facility of Memorial Sloan Kettering Cancer Center using Discovery XT processor (Ventana Medical Systems-Roche). The tissue sections were blocked for 30 min in 10% normal goat serum, 2% BSA in PBS. A rabbit polyclonal anti-Brd4 antibody (HPA015055, Sigma-Aldrich) was used in 1 ug/ml (1:100) concentrations. The incubation with the primary antibody was done for 6 hours, followed by 60 minutes incubation with biotinylated goat anti-rabbit IgG (PK610, Vector labs) in 5.75 ug/mL concentration. Blocker D, Streptavidin-HRP and DAB detection kit (760-124, Ventana Medical Systems-Roche) were used according to the manufacturer instructions. Slides were counterstained with Hematoxylin (760-2021, Ventana), Bluing Reagent (760-2037, Ventana) and coverslipped with Permount (Fisher Scientific).” for “detection.”
(Real-time PCR tracks product formation cycle by cycle.)

We go through three molecules from US20210220471A1, “METHODS OF USING PHARMACOLOGIC INHIBITORS OF TYPE 2 CYTOKINE SIGNALING TO TREAT OR PREVENT PANCREATIC CANCER” (Memorial Sloan Kettering Cancer Center, priority 2018, published 2021).

“Also recorded” adds a separate entry of the source.

With IL-13: recombinant IL-13 cytokine, in assay [1], the “proliferation (Cell Titer Glo)” value is reported as “pro-proliferative effects” and the “proliferation (Cell Titer Glo) after cytokine pre-treatment” value is “further enhanced”.

B1: recombinant IL-4: recombinant IL-4 cytokine (protein, UniProt P05112 25-153, looked up)
Interleukin-4: HKCDITLQEIIKTLNSLTEQKTLCTELTVTDIFAASKNTTEKETFCRAATVLRQFYSHHEKDTRCLGATAQQFHRHKQLIRFLKRLDRNLWGLAGLNSCPVKEANQSTLENFLERLKTIMREKYSKCSS
B1: in assay [1], the “proliferation (Cell Titer Glo)” value is “pro-proliferative effects” and the “proliferation (Cell Titer Glo) after cytokine pre-treatment” value was “further enhanced”.

B2: rIl-33: murine recombinant Il-33 (#580504, R&D Systems) (protein, UniProt Q8BVZ5 1-266, looked up)
Interleukin-33: MRPRMKYSNSKISPAKFSSTAGEALVPPCKIRRSQQKTKEFCHVYCMRLRSGLTIRKETSYFRKEPTKRYSLKSGTKHEENFSAYPRDSRKRSLLGSIQAFAASVDTLSIQGTSLLTQSPASLSTYNDQSVSFVLENGCYVINVDDSGKDQEQDQVLLRYYESPCPASQSGDGVDGKKLMVNMSPIKDTDIWLHANDKDYSVELQRGDVSPPEQAFFVLHKKSSDFVSFECKNLPGTYIGVKDNQLALVEEKDESCNNIMFKLSKI
B2: in assay [2], the “expression of cell fate / PanIN markers in mKate2+ pancreatic epithelial cells” value is “no detectable effects” and the “pancreas histology (H&E, Alcian Blue)” value was “no detectable effects; also recorded: retain normal architecture”. In assay [2] (listed as recombinant IL-33), the “expression of cell fate / PanIN markers in mKate2+ pancreatic epithelial cells” value is recorded as “no effect” and the “pancreas histology (H&E, Alcian Blue)” value is “no effect”. Besides, in assay [3], the “expression of cell fate / PanIN markers (Agr2, Muc6, Dclk1, Cpa1, Sox9) in mKate2+ pancreatic epithelial cells” value was “selective effects” and the “mutant KRAS-driven tumorigenesis / mucinous PanIN lesions (H&E, Alcian Blue, mKate2)” value is “sufficient to trigger many of the tumor-promoting outputs of injury in the mutant Kras setting; also recorded: accelerated ADR with development of mucinous lesions”. In addition, in assay [3] (listed as recombinant IL-33), the “expression of cell fate / PanIN markers (Agr2, Muc6, Dclk1, Cpa1, Sox9) in mKate2+ pancreatic epithelial cells” value is on record as “accelerates mutant KRAS-driven tumorigenesis”; the “mutant KRAS-driven tumorigenesis / mucinous PanIN lesions (H&E, Alcian Blue, mKate2)” value was “promoted tumorigenesis; also recorded: accelerates mutant KRAS-driven tumorigenesis; also recorded: enhanced tumorigenesis”; the “expansion of Dclk1+ cancer stem cells (Dclk1 immunofluorescence)” value is listed as “cancer stem cell expansion”. Further, the “expansion of Dclk1+ cancer stem cells (Dclk1 immunofluorescence)” value in assay [3] (listed as Recombinant IL-33) is listed as “sufficient to drive expansion of Dclk1^+ cancer stem cells in vivo”.
